The results in this text go back to the Human Domainome abundance scans (Beltran et al. 2025).

The chains are these.
B1: POU domain, class 2, transcription factor 3, residues 186 to 260; numbered along this chain, Q9UKI9 (parent)
chain: SDLEELEKFAKTFKQRRIKLGFTQGDVGLAMGKLYGNDFSQTTISRFEALNLSFKNMCKLKPLLEKWLNDAESSP

± gives the uncertainty stated by the source.

In this series the parent is B1. The series can be described thus: abundance fitness (aPCA) (normalised: wild type 0, dead -1); higher = more abundant; growth selection in yeast, the domain comes from the species named. Conditions: Homo sapiens.
For the variant SDLEELEKFAKTFKQRRIKLGFTQGDVGLAMGKLYGNDFSQTTISRFEALNLSFKNMDKLKPLLEKWLNDAESSP, the abundance fitness is -0.04 ± 0.051. As for SDLEELEKFAKTFKQRRIKLGFTQGDVGLAMGKLYGNDFSQTTISRFEALNLSFKNMFKLKPLLEKWLNDAESSP, the abundance fitness came to 0.005 ± 0.06.

As for SDLEELEKFAKTFKQRRIKLGFTQGDVGLAMGKLYGNDFSQTTISRFEALNLSFKNMAKLKPLLEKWLNDAESSP, the abundance fitness was 0.027 ± 0.036. In the case of SDLEELEKFAKTFKQRRIKLGFTQGDVGLAMGKLYGNDFSQTTISRFEALNLSFKNMEKLKPLLEKWLNDAESSP it was -0.039 ± 0.046; in that of SDLEELEKFAKTFKQRRIKLGFTQGDVGLAMGKLYGNDFSQTTISRFEALNLSFKNRCKLKPLLEKWLNDAESSP, -0.608 ± 0.044. Regarding SDLEELEKFAKTFKQRRIKLGFTQGDVGLAMGKLYGNDFSQTTISRFEALNLSFKNICKLKPLLEKWLNDAESSP, the abundance fitness is -0.305 ± 0.097. In the case of SDLEELEKFAKTFKQRRIKLGFTQGDVGLAMGKLYGNDFSQTTISRFEALNLSFKNDCKLKPLLEKWLNDAESSP it was -0.451 ± 0.11; in that of SDLEELEKFAKTFKQRRIKLGFTQGDVGLAMGKLYGNDFSQTTISRFEALNLSFKNVCKLKPLLEKWLNDAESSP, -0.202 ± 0.034. With SDLEELEKFAKTFKQRRIKLGFTQGDVGLAMGKLYGNDFSQTTISRFEALNLSFKNWCKLKPLLEKWLNDAESSP, the abundance fitness is -0.27 ± 0.043. In the case of SDLEELEKFAKTFKQRRIKLGFTQGDVGLAMGKLYGNDFSQTTISRFEALNLSFKNPCKLKPLLEKWLNDAESSP it was -0.8 ± 0.12. As to SDLEELEKFAKTFKQRRIKLGFTQGDVGLAMGKLYGNDFSQTTISRFEALNLSFKNSCKLKPLLEKWLNDAESSP, the abundance fitness was -0.02 ± 0.047. Turning to SDLEELEKFAKTFKQRRIKLGFTQGDVGLAMGKLYGNDFSQTTISRFEALNLSFKNHCKLKPLLEKWLNDAESSP, the abundance fitness is -0.811 ± 0.29. In the case of SDLEELEKFAKTFKQRRIKLGFTQGDVGLAMGKLYGNDFSQTTISRFEALNLSFKNLCKLKPLLEKWLNDAESSP it was -0.021 ± 0.033. With SDLEELEKFAKTFKQRRIKLGFTQGDVGLAMGKLYGNDFSQTTISRFEALNLSFKNFCKLKPLLEKWLNDAESSP the figure was -0.222 ± 0.14. Consider SDLEELEKFAKTFKQRRIKLGFTQGDVGLAMGKLYGNDFSQTTISRFEALNLSFKNGCKLKPLLEKWLNDAESSP, for which the abundance fitness is -0.172 ± 0.032. With SDLEELEKFAKTFKQRRIKLGFTQGDVGLAMGKLYGNDFSQTTISRFEALNLSFKNKCKLKPLLEKWLNDAESSP the figure was -0.396 ± 0.064. In the case of SDLEELEKFAKTFKQRRIKLGFTQGDVGLAMGKLYGNDFSQTTISRFEALNLSFKNQCKLKPLLEKWLNDAESSP it was -0.318 ± 0.077; in that of SDLEELEKFAKTFKQRRIKLGFTQGDVGLAMGKLYGNDFSQTTISRFEALNLSFKNNCKLKPLLEKWLNDAESSP, -0.167 ± 0.095. In the case of SDLEELEKFAKTFKQRRIKLGFTQGDVGLAMGKLYGNDFSQTTISRFEALNLSFKNCCKLKPLLEKWLNDAESSP it was -0.166 ± 0.058.

On to SDLEELEKFAKTFKQRRIKLGFTQGDVGLAMGKLYGNDFSQTTISRFEALNLSFKNYCKLKPLLEKWLNDAESSP, for which the abundance fitness is -0.496 ± 0.12.

For the variant SDLEELEKFAKTFKQRRIKLGFTQGDVGLAMGKLYGNDFSQTTISRFEALNLSFKNECKLKPLLEKWLNDAESSP, the abundance fitness was -0.814 ± 0.09. In the case of SDLEELEKFAKTFKQRRIKLGFTQGDVGLAMGKLYGNDFSQTTISRFEALNLSFKNTCKLKPLLEKWLNDAESSP it was -0.25 ± 0.042. In the case of SDLEELEKFAKTFKQRRIKLGFTQGDVGLAMGKLYGNDFSQTTISRFEALNLSFKNACKLKPLLEKWLNDAESSP it was -0.024 ± 0.036; in that of SDLEELEKFAKTFKQRRIKLGFTQGDVGLAMGKLYGNDFSQTTISRFEALNLSFDNMCKLKPLLEKWLNDAESSP, 0.037 ± 0.052.

For the variant SDLEELEKFAKTFKQRRIKLGFTQGDVGLAMGKLYGNDFSQTTISRFEALNLSFENMCKLKPLLEKWLNDAESSP, the abundance fitness worked out at 0.016 ± 0.042. In the case of SDLEELEKFAKTFKQRRIKLGFTQGDVGLAMGKLYGNDFSQTTISRFEALNLSFQNMCKLKPLLEKWLNDAESSP it was 0.046 ± 0.046; in that of SDLEELEKFAKTFKQRRIKLGFTQGDVGLAMGKLYGNDFSQTTISRFEALNLSFINMCKLKPLLEKWLNDAESSP, -0.12 ± 0.13; in that of SDLEELEKFAKTFKQRRIKLGFTQGDVGLAMGKLYGNDFSQTTISRFEALNLSFYNMCKLKPLLEKWLNDAESSP, 0.069 ± 0.081.

Consider SDLEELEKFAKTFKQRRIKLGFTQGDVGLAMGKLYGNDFSQTTISRFEALNLSFLNMCKLKPLLEKWLNDAESSP, for which the abundance fitness was 0.001 ± 0.039. Take SDLEELEKFAKTFKQRRIKLGFTQGDVGLAMGKLYGNDFSQTTISRFEALNLSFFNMCKLKPLLEKWLNDAESSP: the abundance fitness was -0.031 ± 0.068. In the case of SDLEELEKFAKTFKQRRIKLGFTQGDVGLAMGKLYGNDFSQTTISRFEALNLSFHNMCKLKPLLEKWLNDAESSP it was -0.132 ± 0.099. With SDLEELEKFAKTFKQRRIKLGFTQGDVGLAMGKLYGNDFSQTTISRFEALNLSFMNMCKLKPLLEKWLNDAESSP the figure was -0.052 ± 0.047; with SDLEELEKFAKTFKQRRIKLGFTQGDVGLAMGKLYGNDFSQTTISRFEALNLSFPNMCKLKPLLEKWLNDAESSP, -0.155 ± 0.06. In the case of SDLEELEKFAKTFKQRRIKLGFTQGDVGLAMGKLYGNDFSQTTISRFEALNLSFNNMCKLKPLLEKWLNDAESSP it was -0.152 ± 0.066; in that of SDLEELEKFAKTFKQRRIKLGFTQGDVGLAMGKLYGNDFSQTTISRFEALNLSFTNMCKLKPLLEKWLNDAESSP, -0.003 ± 0.047; in that of SDLEELEKFAKTFKQRRIKLGFTQGDVGLAMGKLYGNDFSQTTISRFEALNLSFRNMCKLKPLLEKWLNDAESSP, -0.015 ± 0.028.
